From publication PMC5362085, “Differential effects of DEAE negative mode chromatography and gel-filtration chromatography on the charge status of Helicobacter pylori neutrophil-activating protein” (PLoS ONE, 2017)

Target: the molecule itself
Experiment: native gel or EMSA; native-PAGE (10% gel) of the load (soluble E. coli lysate), unbound, wash and elution fractions of DEAE Sepharose and DEAE Sephadex batch chromatography, 20 mM Tris-HCl, 50 mM NaCl, pH 7.0 to 9.0 at 25°C; unbound fractions more than 90% pure

B1: Helicobacter pylori neutrophil-activating protein (natural protein)
chain: MKTFEILKHLQADAIVLFMKVHNFHWNVKGTDFFNVHKATEEIYEEFADMFDDLAERIVQLGHHPLVTLSEAIKLTRVKEETKTSFHSKDIFKEILEDYKYLEKEFKELSNTAEKEGDKVTVTYADDQLAKLQKSIWMLQAHLA
notes: HP-NAP, product of the napA gene (HP0243) amplified from genomic DNA of H. pylori strain 26695; subunit of approximately 17 kDa; It states no tag and speaks of recombinant HP-NAP in its native form; its own experiments show only an oligomer; also called HP-NAP; recombinant HP-NAP; source: E. coli BL21(DE3) (pET42a-NAP, IPTG); in soluble lysate and DEAE batch chromatography fractions; copies: 12
  binding result: binds
